Measurements from the supplement of paper PMC10567573.

B1: SOAT1 (parent)
chain: KSAAMLAVFAVSAVVHEYALAVCL
B2: FBXO3 (parent)
chain: GGFPIIRDQIFRYVHDPECVATTG
B3: SEC22B (parent)
chain: FPKKLAFAYLEDLHSEFDEQHGKK

Variants of: B1
Test: protein stability index of a GFP-peptide fusion (GPS, HEK-293T) (PSI 1-6); higher = more stable
Details: c terminus: a fixed tail appended
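Further: lentivirally expressed fusions sorted by FACS into six bins by GFP to DsRed ratio, PSI derived from sequencing read proportions per bin multiplied by bin number.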

Protein stability index of substitutions, site by site:
V8: I 1.62 | S 3.28 | C 2.43 | H 3.18 | W 3.01 | D 2.77 | T 3.11 | F 4.29 | K 2.31 | Y 3.31 | P 3.28 | A 2.89 | N 3.98
S12: W 2.99 | P 2.41 | T 2.46 | Q 3.61 | R 2.11 | A 1.63 | N 4.18 | I 3.04
H16: S 2.73 | D 2.58 | T 2.1 | K 2.88 | L 2.94 | P 2.51
V15: G 2.69 | H 3.15 | Q 2.06 | R 1.83
E17: Q 3.61 | F 2.73 | T 3.21 | G 1.39 | C 2.5 | N 2.23
Y18: W 3.5 | D 2.21 | F 4.1 | Q 2.56 | P 2.23 | M 1.85
V14: N 2 | W 4 | D 3.41 | F 1.91 | H 2.91 | L 3.6
V22: R 4.03 | A 3.06 | H 2.82 | T 3.08 | I 4.34 | C 3.03
C23: Q 2.32 | H 2.03 | D 3.23 | S 3.48 | V 2.34 | I 3.12 | A 1.18 | P 5.3 | K 3.89
L20: E 3.95 | C 2.93 | N 4.2 | W 3.92 | T 2.31 | K 2.58 | I 1.49 | S 2.62 | Q 4.49
A7: W 2.69 | D 2.99 | H 2.91 | I 1.49 | P 2.58 | Y 3.49 | Q 2.59 | R 3.98 | L 3.14 | T 3.23 | G 4.09 | M 1.54 | V 2.07
A3: H 3.8 | W 1.96 | Q 3.47 | K 2.88 | N 2.7 | S 2.25 | T 2.06 | G 2.25 | P 3.72 | M 3.72 | V 1.5 | D 2.23 | Y 2.83 | I 3.19
L6: Q 2.68 | M 4.28 | G 2.94 | K 2.46 | I 3.09 | N 3.55 | E 2.25 | P 3.78 | R 2.02 | F 2.21 | C 3.42 | H 2.73 | D 2.74
A21: F 3.01 | N 3.11 | M 3.82 | I 1.6 | D 3.15 | L 3 | E 3.42 | S 4.49
M5: T 3.55 | R 4.56 | A 2.63 | W 2.56 | E 3.88 | C 3.11 | L 3.74 | G 3.1 | S 4.27 | Q 3.61 | D 3.48 | F 2.22 | N 2.5 | P 3.6
A19: H 2.88 | M 2.47 | Q 2.44 | L 3.87 | K 2.39 | R 3.46 | Y 2.56
F9: S 2.3 | D 4.42 | P 1.92 | Q 3.43 | R 2.15 | V 1.47 | W 3.01 | H 3.12 | A 1.73 | M 2.35
S2: R 2.91 | Y 3.58 | E 3.57 | T 3.26 | L 2.66 | P 2.97 | C 2.54 | I 2.12 | M 2.99 | N 2.09
A4: G 2.92 | Y 2.44 | T 3.43 | L 1.85 | I 1.5 | K 2.98 | H 3.89 | N 2.2 | M 2.94 | V 3.08 | W 1.72 | D 2.45
A10: H 3.74 | E 2.05 | S 3.12 | P 3.61 | V 3.03 | T 1.83 | G 3.62 | Q 3.2
K1: S 5.65 | W 3.4 | D 4.34 | N 1.73 | V 1.84 | E 3.54 | R 3.37 | F 2.89 | H 2.28 | A 3.09 | Q 3.7 | M 2.64 | T 4.59 | G 4.12 | C 1.84
A13: I 3.04 | L 2.81 | W 3.01 | F 2.17 | T 4.82 | K 1.37 | N 2.97 | Q 5.23
L24: P 2.62 | I 2.33 | K 4.06 | D 3.9 | N 2.87 | A 3.7 | T 5.26 | F 2.33 | Y 1.98
V11: D 3.09 | P 4.61 | N 3.47 | Q 3.03 | R 2.94 | A 2.8 | H 1.4 | F 2.89 | C 2.8

Variants of: B2
Test: as above
Details: c terminus: a fixed tail appended

Protein stability index: each site, then its substitutions
T23: E 2.09 | Q 1.96 | H 1.89 | I 1.89 | S 1.59 | L 1.57 | D 1.66 | N 2.13 | K 2.03 | F 2.25 | G 1.12 | R 1.64 | Y 1.61 | V 1.61 | P 1.71 | M 1.73
G24: K 1.96 | S 1.81 | D 2.22 | Y 1.99 | T 2.49 | I 1.5 | P 1.82 | L 1.96 | F 1.93 | C 1.7 | W 1.61 | N 2.31 | Q 2.78 | E 2.22 | H 2.25 | V 1.69 | A 1.83 | R 2.22 | M 1.33

Variants of: B3
Test: as above
Details: c terminus: a fixed tail appended

Protein stability index of substitutions, site by site:
P2: C 1.87 | H 2.17 | D 4.59 | W 1.95 | T 3.05 | A 1.84 | L 1.68 | G 3.38 | F 2.62 | E 4.11 | V 2.29 | I 1.98 | S 3.06 | N 3.44 | K 2.55 | R 2.94 | Q 2.88 | M 3.04 | Y 2.16
K4: C 1.78 | M 2.02 | R 1.61 | T 2.47 | I 2.02 | V 2.25 | A 1.81 | N 2.27 | D 3.31 | Q 2.52 | L 2.18 | G 2.72 | P 2.45 | F 1.97 | W 1.05 | H 2.87 | Y 1.95 | S 1.55 | E 4.95
K3: T 2.53 | R 2.42 | M 2.2 | V 2.53 | G 2.29 | Y 1.74 | S 2.01 | Q 2.4 | D 2.25 | A 1.91 | N 2.23 | L 2.79 | W 1.96 | E 2.95 | H 1.17 | P 3.08 | C 1.69 | F 1.91 | I 2.17
F1: C 4.01 | P 4.6 | Q 4.51 | N 4.88 | H 3.84 | G 4.02 | M 3.97 | R 3.98 | S 4.52 | V 4.13 | Y 2.53 | T 4.37 | D 4.93 | K 4.8 | I 3.56 | A 4.36 | W 3.51 | E 5.41 | L 3.79
